In the oligonucleotide strings, read from the 5' end, every base follows the letter of its sugar. An asterisk marks phosphorothioate; unmarked linkages are phosphodiester. Other units and linkages are bracketed, terminal groups are in braces. A string of capitals states the bases alone. Where no end group is shown, it is not given here. [ ]: non-standard residue; d: D form. {L001} = PTH1 ligand L001 attached via a dibenzocyclooctyne-succinyl-hexylamino linker; l = locked nucleic acid (LNA); [5mC] = 5-methylcytosine; Aib = CC(C)(N)C(=O)O; d = 2'-deoxy (DNA); m = 2'-O-methyl; r = 2'-OH (RNA)
Assays:
[1] = Tm of ligand-bound HDO6 duplex; format: physicochemical; conditions: HDO6 with ligand introduced into complementary strand
mouse Malat1 ncRNA [2] = assay: mMalat1 ncRNA expression in mouse liver and kidney after intravenous L001-HDO6 (Example 3); format: in vivo; conditions: c57BL/6J mice, 1 μmol/kg intravenous, Day 3; compared with vehicle and L001 complementary strand groups
Protocol: The nucleic acid complex used in Example 3 is L001-HDO6, which is a conjugate of 16-mer HDO targeting mouse Malat1 ncRNA prepared in Example 2 and the L001 ligand. The present inventors adjusted the oligo complex to 100 μM with physiological saline (Otsuka Pharmaceutical Co., Ltd.), and double-stranded HDO was subjected to an annealing procedure comprising denaturing at 90° C. for 5 minutes and then naturally cooling to room temperature over a period of about 2 hours in a block bath (CDB-105, AS ONE Corporation).
Species differences in the PTH1 receptor, PTH, and PTHrP are insignificant between humans and mice. […]
Method Mice were divided into groups depending on body weights: the vehicle (saline, Otsuka Pharmaceutical Co., Ltd.) administration group; the L001 complementary strand (1 μmol/kg) administration group; and the L001-HDO6 (1 μmol/kg) administration group (each group consisting of 5 mice (n=5)). […] On the day of autopsy, body weight of each mouse was measured, a blood sample was taken from the heart under anesthesia with isoflurane (introduced at 3% to 5%, maintained at 1% to 3%) (Terumo syringe SS-01P2525, containing the anticoagulant heparin), and mice were euthanized by exsanguination. […]
All the measured values were indicated in terms of “mean±standard deviation.” For statistical analysis, the one-way analysis of variance (ANOVA) was performed using GraphPad Prism 7.04. […]

[3] = Intrarenal distribution, immunostained kidney images after L001-HDO6-Alexa488 (Example 4); format: in vivo, mouse; conditions: 1 μmol/kg, c57BL/6J mice
Protocol: The fluorescence-labeled ASO comprising Alexa488 bound to the 5′ terminus of the antisense strand (SEQ ID NO: 179) prepared in Example 2 was annealed to the L001 complementary strand (SEQ ID NO: 180) by the method described in Example 2 to form a duplex complex. Thus, the fluorescence-labeled HDO (L001-HDO6-Alexa488) was prepared.
The immunohistochemical test was performed with the use of c57BL/6J mice (12 mice). The fluorescence-labeled HDO (L001-HDO6-Alexa488) was intravenously administered to mice at […] once, a blood sample was taken from the heart under anesthesia with isoflurane 10 minutes, 6 hours, 24 hours, and 72 hours later, the kidney was perfused by left ventricular cannulation with 10 ml of saline followed by 10 ml of 4% paraformaldehyde solution, and the kidney was extracted from the mice. The extracted kidney was soaked in 4% paraformaldehyde to prepare frozen sections. The frozen sections were stained with Nephrin (the primary antibody: mouse Nephrin affinity purified polyclonal antibody, Goat IgG (AF3459), R&D Systems) and Alexa Fluor 594 (the secondary antibody: chicken anti-goat IgG (H+L) (A-21468), Invitrogen) to observe the renal glomerulus, and the frozen sections were stained with a DAPI (4′,6-diamidino-2-phenylindole) solution to observe the DNA-containing cell nuclei. The fluorescent images of the pathological sections were incorporated with the use of the Olympus VS120 Slide Scanning System.
The photograph in the lower right is an image obtained by superposing the aforementioned 3 photographs superposed on top of each other (merged).

mouse Malat1 ncRNA [4] = assay: Malat1 ncRNA expression in mouse kidney after intravenous or subcutaneous PTH1 ligand-HDO (Example 5); format: in vivo; conditions: intravenous, 1 μmol/kg
Protocol: The nucleic acid complexes used in Example 5 are each a conjugate of 16-mer HDO or ASO targeting mouse Malat1 ncRNA prepared in the example above and the PTH1 ligand. The present inventors adjusted the oligo complex with physiological saline (Otsuka Pharmaceutical Co., Ltd.), the oligo complex for animal evaluation was denatured in a block bath (CDB-105, AS ONE Corporation), and the double-stranded HDO for cell evaluation was subjected to an annealing procedure comprising denaturing at 90° C. for 10 minutes and then naturally cooling to room temperature over a period of about 2 hours in a T100 thermal cycler (Bio-Rad). […]
For mRNA extraction, tissue was fractured by bead crushing using a TissueLyser II (QIAGEN). Total RNA was extracted from the solution containing fractured tissue using the ReliaPrep™ RNA Tissue Miniprep System (Promega Corporation). cDNA was prepared from total RNA by reverse transcription using the PrimeScript™ RT Master Mix (TaKaRa). mRNA expression of each gene was measured using the real-time PCR system (StepOnePlus, Applied Biosystems). […]
All the measured values were indicated in terms of “mean±standard deviation.” Statistical analysis was performed using GraphPad Prism 9.4.0. […]

[5] = target: T1, mouse Pth1R (mPth1R), stably expressed on NIH/3T3 cells (mouse, UniProt P41593 27-591); assay: cell-based or functional assay
T1 sequence (looked up): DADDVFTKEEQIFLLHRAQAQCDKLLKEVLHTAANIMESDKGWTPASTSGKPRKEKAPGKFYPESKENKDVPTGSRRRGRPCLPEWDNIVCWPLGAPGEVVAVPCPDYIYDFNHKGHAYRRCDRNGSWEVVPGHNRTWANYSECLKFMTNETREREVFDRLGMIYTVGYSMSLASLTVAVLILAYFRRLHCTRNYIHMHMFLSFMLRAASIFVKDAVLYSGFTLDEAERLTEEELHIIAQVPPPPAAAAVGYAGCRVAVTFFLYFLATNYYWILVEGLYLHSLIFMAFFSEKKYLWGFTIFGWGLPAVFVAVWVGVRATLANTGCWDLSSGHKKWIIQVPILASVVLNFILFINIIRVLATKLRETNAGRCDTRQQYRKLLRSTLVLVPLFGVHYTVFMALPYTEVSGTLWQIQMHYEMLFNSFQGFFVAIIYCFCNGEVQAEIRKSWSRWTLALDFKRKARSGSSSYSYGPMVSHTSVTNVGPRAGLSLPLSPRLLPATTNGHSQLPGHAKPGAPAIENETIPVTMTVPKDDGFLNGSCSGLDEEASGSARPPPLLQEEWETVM

[6] = 10 minutes after single intravenous administration

L001-HDO6: HDO targeting mouse Malat1 ncRNA: antisense strand SEQ ID NO: 179, complementary strand SEQ ID NO: 180 bound to PTH1 ligand L001 (antisense l[5mC]*lT*lA*dG*dT*dT*dC*dA*dC*dT*dG*dA*dA*lT*lG*l[5mC]; sense {L001}-mG*mC*mA*rUrUrCrArGrUrGrArArC*mU*mA*mG)
Tm [1]: 64 °C | mMalat1 ncRNA expression level in the kidney (mouse Malat1 ncRNA [2]): lowered in the L001-HDO6 administration group to a significant extent | mMalat1 ncRNA expression level in the liver (mouse Malat1 ncRNA [2]): lowered in the L001-HDO6 administration group to a significant extent | fluorescence Alexa-488 in the glomerulus ([3]; 6, 24, or 72 hours after single intravenous administration): no fluorescence was observed | fluorescence Alexa-488 in kidney tubular cells [3, 6]: observed | fluorescence Alexa-488 in the glomerulus [3, 6]: slightly observed | fluorescence Alexa-488 in kidney tubular cells ([3]; 6 hours after single intravenous administration): intensified | fluorescence Alexa-488 in kidney tubular cells ([3]; 24 hours after single intravenous administration): maximum fluorescence was observed | fluorescence Alexa-488 in kidney tubular cells ([3]; 72 hours after single intravenous administration): still observed in many kidney tubules | Malat1 ncRNA expression in the kidney (mouse Malat1 ncRNA [4]; Day 3, compared with the saline administration group): lowered to a statistically significant extent | Malat1 ncRNA expression in the kidney (mouse Malat1 ncRNA [4]; Day 3, in comparison with HDO without ligand): lowered to a statistically significant extent

B1: L005-HDO6 (peptide)
peptide: HQLLHDKGKSIQDLRRRELLEKLLAKLHKA
modifications: not fully specified (residue 29); printed as HQLLHDKGKSIQDLRRRELLEKLLAKLH(K-PEG3-Unit)A
IC50 of lowering Malat1 ncRNA expression level in the mPth1R-stably expressing cell line [5]: 121 nM

AVSEHQLLHDKGKSIQDLRRRELLEKLLAKLHKA (not fully specified (residue 33)) [L001-ASO]
IC50 of lowering Malat1 ncRNA expression level in the mPth1R-stably expressing cell line [5]: 1.25 nM

SEHQLLHDKGKSIQDLRRRELLEKLLAKLHKA (not fully specified (residue 31)) [L003-HDO6]
IC50 of lowering Malat1 ncRNA expression level in the mPth1R-stably expressing cell line [5]: 88.9 nM

B2: L010-HDO6 (peptide)
peptide: DKGKSIQDLRRRELLEKLLAKLHKA
modifications: not fully specified (residue 24); printed as DKGKSIQDLRRRELLEKLLAKLH(K-PEG3-Unit)A
IC50 of lowering Malat1 ncRNA expression level in the mPth1R-stably expressing cell line [5]: 167 nM

AVSEHQLLHDKGKSIQDLRRRELLEKLL[Aib]KLHTAK (not fully specified (residue 35); also: prints K at position 33) [L021-HDO6]
IC50 of lowering Malat1 ncRNA expression level in the mPth1R-stably expressing cell line [5]: 46.8 nM

From patent US20260185102A1, “LIGAND-BINDING NUCLEIC ACID COMPLEX” (RENA THERAPEUTICS INC., priority 2021, published 2026)
